The chains are these.
T1: human IL1RAP (hu-IL1RAP) on human cells (human, UniProt Q9NPH3 21-570)
T1 sequence: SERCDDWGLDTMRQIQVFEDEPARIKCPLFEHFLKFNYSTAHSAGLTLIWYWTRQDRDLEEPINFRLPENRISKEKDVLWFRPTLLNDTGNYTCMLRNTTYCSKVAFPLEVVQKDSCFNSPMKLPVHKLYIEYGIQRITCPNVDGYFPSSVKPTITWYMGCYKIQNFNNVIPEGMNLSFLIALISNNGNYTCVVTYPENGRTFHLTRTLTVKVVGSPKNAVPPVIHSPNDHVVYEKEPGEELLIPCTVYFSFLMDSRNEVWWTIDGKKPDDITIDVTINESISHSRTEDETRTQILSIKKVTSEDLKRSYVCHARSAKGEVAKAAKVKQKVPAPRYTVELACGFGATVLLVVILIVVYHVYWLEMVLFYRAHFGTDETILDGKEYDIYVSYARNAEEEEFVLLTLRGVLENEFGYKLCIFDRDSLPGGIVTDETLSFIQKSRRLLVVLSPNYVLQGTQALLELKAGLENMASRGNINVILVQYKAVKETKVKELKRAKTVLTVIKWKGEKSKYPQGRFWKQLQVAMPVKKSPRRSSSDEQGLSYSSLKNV

T2: hu-M-IL1RAP construct, positions S21-T367 (extracellular domain of the membrane form of human IL1RAP) (human, UniProt Q9NPH3 21-367)
T2 construct: Biotinylated when captured on the Biacore chip
T2 sequence: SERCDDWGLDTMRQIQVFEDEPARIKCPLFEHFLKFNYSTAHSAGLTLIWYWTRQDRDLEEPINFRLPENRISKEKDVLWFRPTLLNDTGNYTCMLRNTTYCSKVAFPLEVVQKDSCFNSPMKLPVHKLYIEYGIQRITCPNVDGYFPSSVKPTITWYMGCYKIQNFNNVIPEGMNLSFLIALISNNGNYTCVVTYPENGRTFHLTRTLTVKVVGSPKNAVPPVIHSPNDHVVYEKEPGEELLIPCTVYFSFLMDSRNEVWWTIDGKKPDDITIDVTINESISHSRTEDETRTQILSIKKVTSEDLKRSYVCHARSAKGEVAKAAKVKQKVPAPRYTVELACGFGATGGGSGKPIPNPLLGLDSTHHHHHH

B1: Parent Fab (Fab of h11C5_C59Y/A43S) (Fab, V domains shown)
VH: EVQLVESGGGLVQPGGSLRLSCAASGFTFSNYAMSWVRQAPGKGLEWVATVTEGGDYNYYLDDVKGRFTISRDNAKNSLYLQMNSLRAEDTAVYYCARDRWPYFFDYWGQGTLVTVSS
VL: DIQMTQSPSSLSASVGDRVTITCRASENIYSNLAWYQQKPGKSPKLLVYGAKNLADGVPSRFSGSGSGTDYTLTISSLQPEDFATYYCQHFWTTPRTFGGGTKVEIK
notes: Fab with 8xHis tag; also called parental Fab of h11C5_C59Y/A43S
B2: K17/H2 Fab (VL-A51Y/W92K, VH-R96D) (Fab, V domains shown)
VH: B1 VH with R100D
VL: B1 VL with A51Y, W92K
notes: Fab with 8xHis tag
B3: K17/H3 Fab (VL-A51Y/W92K, VH-V51S) (Fab, V domains shown)
VH: B1 VH with V51S
VL: B1 VL with A51Y, W92K
notes: Fab with 8xHis tag
B4: K10/H2 Fab (VL-A51Y, VH-R96D) (Fab, V domains shown)
VH: B1 VH with R100D
VL: B1 VL with A51Y
notes: Fab with 8xHis tag
B5: K13/H3 Fab (VL-A51Y/W92I, VH-V51S) (Fab, V domains shown)
VH: B1 VH with V51S
VL: B1 VL with A51Y, W92I
notes: Fab with 8xHis tag
B6: K13/H2 Fab (VL-A51Y/W92I, VH-R96D) (Fab, V domains shown)
VH: B1 VH with R100D
VL: B1 VL with A51Y, W92I
notes: Fab with 8xHis tag
B7: K10/H3 Fab (VL-A51Y, VH-V51S) (Fab, V domains shown)
VH: B1 VH with V51S
VL: B1 VL with A51Y
notes: Fab with 8xHis tag
B8: K17 Fab (VL A51Y/W92K) (Fab, V domains shown)
VH: B1 VH
VL: B1 VL with A51Y, W92K
notes: Fab with 8xHis tag
B9: H11 Fab (VH W97F) (Fab, V domains shown)
VH: B1 VH with W101F
VL: B1 VL
notes: Fab with 8xHis tag
B10: H12 Fab (VH M34V) (Fab, V domains shown)
VH: B1 VH with M34V
VL: B1 VL
notes: Fab with 8xHis tag
B11: H10 Fab (VH F29S/D55G/R96S) (Fab, V domains shown)
VH: B1 VH with F29S, D56G, R100S
VL: B1 VL
notes: Fab with 8xHis tag
B12: H9 Fab (VH G54V/R96A) (Fab, V domains shown)
VH: B1 VH with G55V, R100A
VL: B1 VL
notes: Fab with 8xHis tag
B13: h11C5_C59S (antibody, human IgG1, V domains shown)
VH: B1 VH with Y60S
VL: B1 VL with S43A
notes: Human IgG1/kappa constant domains
B14: h11C5_C59T (antibody, human IgG1, V domains shown)
VH: B1 VH with Y60T
VL: B1 VL with S43A
notes: as for B13
B15: h11C5_C59A (antibody, human IgG1, V domains shown)
VH: B1 VH with Y60A
VL: B1 VL with S43A
notes: as for B13
B16: c11C5_C59A (antibody, IgG1, V domains shown)
VH: EVQLVESGGGLVKPGGSLKLSCAASGFTFSNYAMSWVRQTPEKRLEWVATVTEGGDYNYALDDVKGRFTISRDNANDNLYLQMSHLKSEDSARYYCARDRWPYFFDYWGQGTTLTVSS
VL: DIQMTQSPASLSVSVGETVTITCRASENIYSNLAWYQQKQGRSPQLLVYGAKNLADGVPSRFSGSGSGTQYSLNINSLQSEDFGTYYCQHFWTTPRTFGGGTKLEIK
notes: Murine VL and VH, human CL and IgG1 CH1-CH3 domains
B17: m11C5_C59A (antibody, mouse IgG2a, V domains shown)
VH: B16 VH
VL: B16 VL
notes: Murine IgG2a constant domains
B18: K13/H12 Fab (VL-A51Y/W92I, VH-M34V) (Fab, V domains shown)
VH: B1 VH with M34V
VL: B1 VL with A51Y, W92I
notes: Fab with 8xHis tag

Changes are numbered by the printed parent chain. Names may count otherwise.

The first test deals with T1, human IL1RAP (hu-IL1RAP) on human cells. Kind of test: cell-based or functional assay.
B1: the “HEK-Blue, IL-1β, % inhibition at 100 nM (Fab)” value (“HEK-Blue, IL-1β, % inhibition” below) is 96%; the “HEK-Blue, IL-1β, IC50 (Fab)” value amounted to 7.45 nM; the “HEK-Blue, IL-33, % inhibition at 100 nM (Fab)” value (“HEK-Blue, IL-33, % inhibition” below) turned out to be 77%; the “HEK-Blue, IL-33, IC50 (Fab)” value worked out at 26.4 nM. Besides, the “HEK-Blue, IL-36α, % inhibition at 100 nM (Fab)” value (“HEK-Blue, IL-36α, % inhibition” below) came out at 96% and the “HEK-Blue, IL-36α, IC50 (Fab)” value stood at 5.09 nM.

Consider B2, for which the “HEK-Blue, IL-1β, % inhibition” value was 100%; the “HEK-Blue, IL-1β, IC50 (Fab)” value was 1.86 nM; the “HEK-Blue, IL-33, % inhibition” value came out at 97%; the “HEK-Blue, IL-33, IC50 (Fab)” value was determined as 4.71 nM. The “HEK-Blue, IL-36α, % inhibition” value was 100% and the “HEK-Blue, IL-36α, IC50 (Fab)” value was found to be 0.93 nM.

Take B3: the “HEK-Blue, IL-1β, % inhibition” value was determined as 100%; the “HEK-Blue, IL-1β, IC50 (Fab)” value is 1.32 nM; the “HEK-Blue, IL-33, % inhibition” value stood at 98%; the “HEK-Blue, IL-33, IC50 (Fab)” value came to 3.53 nM. The “HEK-Blue, IL-36α, % inhibition” value stood at 100% and the “HEK-Blue, IL-36α, IC50 (Fab)” value is 0.8 nM.

As to B4, the “HEK-Blue, IL-1β, % inhibition” value was found to be 100%; the “HEK-Blue, IL-1β, IC50 (Fab)” value was 0.552 nM; the “HEK-Blue, IL-33, % inhibition” value worked out at 99%; the “HEK-Blue, IL-33, IC50 (Fab)” value came out at 2.17 nM. In addition, the “HEK-Blue, IL-36α, % inhibition” value came to 100% and the “HEK-Blue, IL-36α, IC50 (Fab)” value came out at 0.481 nM.

B5: the “HEK-Blue, IL-1β, % inhibition” value came to 100%; the “HEK-Blue, IL-1β, IC50 (Fab)” value worked out at 0.898 nM; the “HEK-Blue, IL-33, % inhibition” value turned out to be 99%; the “HEK-Blue, IL-33, IC50 (Fab)” value came out at 2.07 nM. Also, the “HEK-Blue, IL-36α, % inhibition” value worked out at 98% and the “HEK-Blue, IL-36α, IC50 (Fab)” value worked out at 0.462 nM.

For the molecule B6, the “HEK-Blue, IL-1β, % inhibition” value was found to be 100%; the “HEK-Blue, IL-1β, IC50 (Fab)” value was determined as 0.539 nM; the “HEK-Blue, IL-33, % inhibition” value worked out at 98%; the “HEK-Blue, IL-33, IC50 (Fab)” value was 2.39 nM. In addition, the “HEK-Blue, IL-36α, % inhibition” value stood at 99% and the “HEK-Blue, IL-36α, IC50 (Fab)” value amounted to 0.548 nM.

For the molecule B7, the “HEK-Blue, IL-1β, % inhibition” value came to 99%; the “HEK-Blue, IL-1β, IC50 (Fab)” value amounted to 0.642 nM; the “HEK-Blue, IL-33, % inhibition” value is 98%; the “HEK-Blue, IL-33, IC50 (Fab)” value is 2.43 nM. The “HEK-Blue, IL-36α, % inhibition” value is 100% and the “HEK-Blue, IL-36α, IC50 (Fab)” value was determined as 0.582 nM.

For B8, the “HEK-Blue, IL-1β, % inhibition” value amounted to 100%; the “HEK-Blue, IL-1β, IC50 (Fab)” value is 1.59 nM; the “HEK-Blue, IL-33, % inhibition” value is 96%; the “HEK-Blue, IL-33, IC50 (Fab)” value came to 5.38 nM. Moreover, the “HEK-Blue, IL-36α, % inhibition” value was 100% and the “HEK-Blue, IL-36α, IC50 (Fab)” value was determined as 1.27 nM.

The next test concerns the target T2, hu-M-IL1RAP construct, positions …. Put plainly: SPR, Fab analyte, 25 C.
Regarding B1, the “apparent Kd (pooled screen)” value is 0.337 nM, the “apparent koff (pooled screen)” value is 0.000468 s⁻¹ and the “apparent kon (pooled screen)” value is 1.39e+06 M⁻¹ s⁻¹.

The molecule B8 had a dissociation constant (Kd) of 0.00637 nM, a koff of 3.58e-05 s⁻¹ and an on-rate constant (kon) of 5.63e+06 M⁻¹ s⁻¹.

Another test shares this target. Put plainly: SPR, Fab analyte, 37 C.
Experimental: (§1) Surface plasmon resonance (SPR) analysis was used to determine binding affinity for hu-M-IL1RAP of the purified Fabs containing the selected single, double, and triple mutations in either the VL or VH regions using a BIACORE™ 8K instrument. […] For kinetics measurements, 5 nM biotinylated hu-M-IL1RAP was captured at 10 μL/min to achieve ˜50 response units in the second flow cell (FC2). FC1 was kept as a reference. […] The sensorgrams were recorded and subjected to reference and buffer subtraction before data analysis with the BIACORE® 8K Evaluation Software (version 1.1.1.7442). Association rates (kₒₙ) and dissociation rates (koff) were calculated using a simple one-to-one Langmuir binding model. The equilibrium dissociation constant (KD) was calculated as the ratio of koff/kₒₙ.
With B1, the “apparent Kd (pooled screen)” value was determined as 0.268 nM, the “apparent koff (pooled screen)” value worked out at 0.00163 s⁻¹ and the “apparent kon (pooled screen)” value came to 6.08e+06 M⁻¹ s⁻¹.

Molecule B9 returned a dissociation constant (Kd) of 0.46 nM, a koff of 0.00441 s⁻¹ and a kon of 9.58e+06 M⁻¹ s⁻¹.

With B10, the Kd was determined as 0.305 nM, the koff was determined as 0.00174 s⁻¹ and the kon was 5.7e+06 M⁻¹ s⁻¹.

As for B11, the affinity, expressed as Kd, was 0.131 nM; the koff turned out to be 0.000702 s⁻¹; the kon stood at 5.34e+06 M⁻¹ s⁻¹.

Regarding B8, binding was characterised by a dissociation constant (Kd) of 0.0441 nM, the koff came to 0.000159 s⁻¹ and the association rate constant (kon) was determined as 3.6e+06 M⁻¹ s⁻¹.

As for B12, the Kd was 0.0811 nM, the koff is 0.000401 s⁻¹ and the kon worked out at 4.94e+06 M⁻¹ s⁻¹.

For another test the target is unchanged. Put plainly: BLI (OCTET), mAb captured, 25 C.
Experimental: All samples were placed in black 96-well plates and the experiment was performed at 25° C. […] The biosensors were equilibrated in experimental buffer at 25° C. for ten minutes prior to starting the experiment.
The resulting BLI signal from analyte association and dissociation from the immobilized antibody was analyzed using the Octet Data Analysis software (Pall ForteBio). First, a reference subtraction was performed on all recorded traces using the reference well (biosensor that underwent the same steps as experimental wells but no analyte for the Association step), then all the traces were aligned to the beginning of the Association step.
Molecule B13 returned a Kd of 1.08 nM.

For B14, binding was put at a Kd of 3.26 nM.

The molecule B15 yielded a dissociation constant Kd of 2.06 nM. Compared with the last molecule, the Kd is about 1.6-fold lower.

Molecule B16 yielded a dissociation constant (Kd) of 0.756 nM.

Regarding B17, the Kd was 0.513 nM. This Kd and that of the molecule before are within 1.5-fold of each other.

The target is the same in another test. Kind of test: SPR, Fab analyte, 37 C. The source holds these as a separate data set.
Experimental: as §1
For B2, the affinity, expressed as Kd, was 0.0293 nM; the koff is 0.000121 s⁻¹; the kon was 4.15e+06 M⁻¹ s⁻¹.

With B3, the Kd amounted to 0.0315 nM, the koff was 0.00012 s⁻¹ and the kon is 3.81e+06 M⁻¹ s⁻¹.

B18 returned a Kd of 0.0363 nM, a koff of 0.000178 s⁻¹ and a kon of 4.9e+06 M⁻¹ s⁻¹.

Take B4: the affinity, expressed as Kd, was 0.0201 nM; the koff came out at 0.000111 s⁻¹; the kon came out at 5.54e+06 M⁻¹ s⁻¹.

With B5, the Kd amounted to 0.0211 nM, the koff was 0.000109 s⁻¹ and the kon amounted to 5.17e+06 M⁻¹ s⁻¹.

The molecule B6 returned a Kd of 0.0227 nM, a koff of 0.000115 s⁻¹ and a kon of 5.08e+06 M⁻¹ s⁻¹.

With B7, the Kd stood at 0.0242 nM, the koff was found to be 0.000123 s⁻¹ and the kon was determined as 5.06e+06 M⁻¹ s⁻¹.

Values taken from US20260015426A1 (23ANDME, published 2026).
